Data from the supplement of paper PMC10567573.

B1: SNX3 (parent)
chain: FLRQLPFRGDDGIFDDNFIEERKQ

Variants of: B1
Assay: protein stability index of a GFP-peptide fusion (GPS, HEK-293T) (PSI 1-6); higher = more stable
Details: c terminus: a fixed tail appended
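Further: lentivirally expressed fusions sorted by FACS into six bins by GFP to DsRed ratio, PSI derived from sequencing read proportions per bin multiplied by bin number.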

Protein stability index, by site and new letter:
I19: M 3.75, K 3.62, V 3.73, C 3.29
G12: T 3.66, E 3.64, C 3.03, Q 3.84, V 3.07, I 2.39, P 2.74, N 3.23, M 3.79
D10: T 3.2, S 3.35, Y 1.9, K 3.41
G9: E 3.17, C 2.79, F 3.36, L 2.99, T 2.97, N 2.72
R3: V 2.98, L 1.94, P 4.09, F 1.97, I 2.42, H 3.12, E 3.2, W 1.83, M 2.76
F7: C 3.16, Y 3.07, Q 3.59
R22: M 3.45, T 3.77, G 3.66, N 3.78, K 3.81, F 3.44, S 2.81, I 2.78
F14: Y 2.84, D 4.79, T 3.86, M 3.67, C 3.06, S 3.87
E21: K 3.33, A 3.12, V 2.02, P 2.62, Y 2
N17: Q 3.71, W 1.94, K 3.98, H 3.41, M 2.79, P 3.23
L5: W 1.96, N 3.78, G 3.74, V 4.15, H 3.22, M 3.39
I13: A 4.22, E 4, N 3.28, P 4.03
Q4: W 2.7, G 4.33, A 3.78, K 2.67, Y 1.48, C 2.83, M 3.22, H 2.94, N 2.13, L 1.91
Q24: F 2.96, V 2.61, D 3.62, R 3.48, P 2.6, Y 2.93, A 3.3, N 4.03
D16: P 3.4, R 3.23, A 2.62, I 3.19, S 3.53, N 2.88
D15: C 2.99, F 2.74, L 3.28, S 3.15, M 3.28, A 3.45, Q 2.97, N 2.75, K 2.96
F1: W 3.03, I 3.58, H 5.32, N 4.44, T 4.59, D 4.7, S 4.72, L 3.83, M 3.56
E20: N 2.92, F 2.88, G 3.17, Y 2.84, D 3.35, P 2.44, K 3.74, S 2.93, V 2.49
D11: C 2.91, T 3.37, N 3.01, F 2.74, I 2.53, W 1.94, V 4.03
L2: N 4.08, Y 4.46, T 4.04, Q 3.07, P 4.66
R8: A 3.15, Q 4.22, D 2.9, S 3.61, H 3.96, V 3.56, F 2.44, C 2.33, N 3.68, T 3.97
K23: M 3.26, W 2.75, L 2.49, D 4.48, P 3.36, I 2.47, T 3.52
F18: N 4.16, W 3.2, M 3.79, D 4.12, R 3.9, S 4.3
P6: Q 3.32, S 3.26, R 3.1, M 1.74, V 2.29, E 2.91, I 2.26, W 2.15, Y 2.9, A 2.22, D 3.31
